Experimental data from paper PMC8059062.

Columns and labels:
Test in all cases: co-purification after bacterial coexpression, molar ratio by rpHPLC; (Ca2+)4-CaM copurified with His-GST-tagged FGF NTD fragments; complexes separated on a C-18 column, ratio from peak areas at 220 nm
[1] = biological target: FGF14ANTD (FGF14A N-terminal domain, aa 1-68) (human) (UniProt Q92915)
[2] = biological target: FGF13ANTD (FGF13A N-terminal domain, aa 1-66) (human) (UniProt Q92913)
[3] = biological target: FGF11ANTD (FGF11A N-terminal domain, aa 1-68) (human) (UniProt Q92914)
[4] = biological target: FGF12ANTD (FGF12A N-terminal domain, aa 1-70) (human) (UniProt P61328)

Measured: stoichiometry N ((Ca2+)4-CaM per FGF NTD)

Chain of FGF11ANTD (FGF11A N-terminal domain, aa 1-68) (human) (Q92914 other isoform, or with tags, fused parts or gaps): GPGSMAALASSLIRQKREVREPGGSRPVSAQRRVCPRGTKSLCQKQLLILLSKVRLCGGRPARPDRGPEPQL
Chain of FGF14ANTD (FGF14A N-terminal domain, aa 1-68) (human) (Q92915 other isoform, or with tags, fused parts or gaps): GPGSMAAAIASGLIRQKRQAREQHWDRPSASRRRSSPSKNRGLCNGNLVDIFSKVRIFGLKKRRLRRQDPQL
Chain of FGF13ANTD (FGF13A N-terminal domain, aa 1-66) (human) (Q92913 other isoform, or with tags, fused parts or gaps): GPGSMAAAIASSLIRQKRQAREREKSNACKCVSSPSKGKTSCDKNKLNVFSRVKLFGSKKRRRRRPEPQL
Chain of FGF12ANTD (FGF12A N-terminal domain, aa 1-70) (human) (P61328 other isoform, or with tags, fused parts or gaps): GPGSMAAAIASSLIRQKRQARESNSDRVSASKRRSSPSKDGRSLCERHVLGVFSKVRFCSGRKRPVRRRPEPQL

calmodulin, wild type, full-length (aa 1-148) (from UniProt P0DP23 1-149) (natural protein)
1: all assays above
